The source of these data is publication PMC3001049.

Like-named read-outs stand apart in the source and are kept apart here.

The target of data set [1] is T1, XPA (human, UniProt P23025 1-273). Nature of the data set: photocrosslinking.
The target in data set [2] is T1, XPA. As to the kind of experiment: photocrosslinking. The source holds these as a separate data set.

T1 sequence (P23025 whole entry): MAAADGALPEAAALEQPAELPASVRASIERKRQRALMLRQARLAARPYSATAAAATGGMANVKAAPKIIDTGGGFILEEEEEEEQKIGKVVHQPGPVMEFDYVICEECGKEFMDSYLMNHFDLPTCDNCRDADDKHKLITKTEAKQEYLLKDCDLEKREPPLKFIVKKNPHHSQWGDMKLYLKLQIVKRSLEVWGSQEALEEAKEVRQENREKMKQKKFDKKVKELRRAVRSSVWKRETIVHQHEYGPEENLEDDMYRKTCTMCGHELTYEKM

B1: damaged duplex Fg/4 (dsDNA)
DNA 1: GTCGTTCGGAAGACCCTGACGTTGCCCAACTTAATCGCCTCGCCATAG
DNA 2: CTATGGCGAGGCGATTAAGTTGGGCAACGTCAGGGTCTTCCGAACGAC
modifications: strand 1 T23 = Flu-dUMP; strand 2 T30 = 5-iodo-dUMP
Consider B1, for which, in data set [1], the binding result was “binds”.

B2: damaged duplex FI3/N (dsDNA)
DNA 1: GTCGTTCGGAAGACCCTGACGTTACCCAACTTAATCGCCTCGCCATAG
DNA 2: CTATGGCGAGGCGATTAAGTTGGGTAACGTCAGGGTCTTCCGAACGAC
modifications: strand 1 T17 = 5-iodo-dUMP, T22 = Flu-dUMP
As for B2, the binding result in data set [2] is on record as “binds”.
